From PMC2034474 come the findings set out here.

The subject of the data set is HIS-GST-cERCC1 (ERCC1 central domain) (Homo sapiens). The experiment in a line: EMSA.

As to “b10 (bubble10, dsDNA with 10 unpaired bases)”, the Kd (in general, the constant that tells how readily two partners part at equilibrium) turned out to be 2500 nM.
